Tests used:
[1] = target: Pf-WRS catalytic domain (aminoacylation and anticodon binding domains) (Plasmodium falciparum); assay: SEC; gel filtration on Superdex200, 20 mM Tris, 100 mM NaCl, pH 7.5; oligomeric state from migration against markers (BSA, DTD)
[2] = target: Plasmodium falciparum cytoplasmic tryptophanyl-tRNA synthetase, full length (Plasmodium falciparum); assay: as above

Row | stoichiometry N [1] | stoichiometry N [2] | Substance
1 | 2 | – | Pf-WRS catalytic domain (aminoacylation and anticodon binding domains) (domain or fragment)
2 | – | 2 | Plasmodium falciparum cytoplasmic tryptophanyl-tRNA synthetase, full length (enzyme)

Source: PMC3680381
